Source: patent US20200232972A1, “METHOD FOR SCREENING ANTI-AGING SUBSTANCES” (Shiseido Company, Ltd., priority 2017, published 2020)

Test system: young fibroblasts (MMP1 and collagen expression)
Experiment: Addition of senescence factor proteins to young fibroblasts: MMP1 and collagen gene expression by RT-PCR
Assay type: cell-based, Homo sapiens
Conditions: protein added at 10 μg/ml vs 0 μg/ml, 2 days; for MMP1 expression: FIG. 4(A); for expression of collagen (Collagen 1 gene): FIG. 4(B)
Protocol: Dermal fibroblasts established from skin from the back of an adult were cultured in Dulbecco's Modified Eagle Medium supplemented with 10% FBS. Cells with a culture period of less than 1 month and Pdl<30 were used as normal fibroblasts (young fibroblasts). These cells were cultured for 3 months or more and cells which began to proliferate more slowly (doubling time less than 0.5/week and Pdl>50) were used as senescent cells. Normal fibroblasts were inoculated on the upper layer of a 6-well transwell system (Falcon; Franklin Lakes, N.J.) filled with Dulbecco's Modified Eagle Medium supplemented with 10% FBS until the density was 1250 cell/cm^2. Subconstructed senescent fibroblasts and normal fibroblasts were separately inoculated in two wells of the lower layer of the transwell system. The upper layer and the lower layer of the transwell system were combined and cultured for 2 days at 37° C. in a humidified atmosphere with 5% CO2, and the cells in the upper layer and the lower layer were recovered using Qiazole (Qiagen).
RNA was extracted from the recovered cell lysate using RNeasy Protect Kit (Qiagen) by following the instructions therefor, then Superscript VILO (Invitrogen) was used to reverse transcribe the RNA into cDNA by following the instructions. Using 28SrRNA as an internal standard, real time PCR was performed with LightCycler (commercially available) using the primer pairs for the following genes. The cycle threshold (Ct value) calculated by Lightcycler software ver. 3.5 was normalized for GAPDH mRNA of each sample.
The proteins of the candidate senescence factors (IGFBP7 and RSPO4) (purchased from Serotec, R&D SYSTEMS) were added to the culture medium for culturing the young fibroblasts at a concentration of 0 μg/ml and 10 μg/ml. After culturing for 2 days, the cells were then separately recovered using Qiazole (Qiagen). In the same way as disclosed in the section relating to quantitative RT-PCR, the expression levels of MMP1 and collagen were examined in the recovered cell lysate.

Row | Molecule | MMP1 expression | expression of collagen (Collagen 1 gene)
1 | RSPO4: Homo sapiens R-spondin family, member 4 protein, purchased (Serotec, R&D SYSTEMS), candidate senescence factor (protein, UniProt Q2I0M5 20-234, looked up) R-spondin-4: LNRRKKQVGTGLGGNCTGCIICSEENGCSTCQQRLFLFIRREGIRQYGKCLHDCPPGYFGIRGQEVNRCKKCGATCESCFSQDFCIRCKRQFYLYKGKCLPTCPPGTLAHQNTRECQGECELGPWGGWSPCTHNGKTCGSAWGLESRVREAGRAGHEEAATCQVLSESRKCPIQRPCPGERSPGQKKGRKDRRPRKDRKLDRRLDVRPRQPGLQP | increased | reduced
2 | IGFBP7: Homo sapiens insulin-like growth factor binding protein 7 protein, purchased (Serotec, R&D SYSTEMS), candidate senescence factor (protein, UniProt Q16270 27-282, looked up) Insulin-like growth …: SSSDTCGPCEPASCPPLPPLGCLLGETRDACGCCPMCARGEGEPCGGGGAGRGYCAPGMECVKSRKRRKGKAGAAAGGPGVSGVCVCKSRYPVCGSDGTTYPSGCQLRAASQRAESRGEKAITQVSKGTCEQGPSIVTPPKDIWNVTGAQVYLSCEVIGIPTPVLIWNKVKRGHYGVQRTELLPGDRDNLAIQTRGGPEKHEVTGWVLVSPLSKEDAGEYECHASNSQGQASASAKITVVDALHEIPVKKGEGAEL | increased | reduced
